assay: Example 5A gas chromatography assay of HHDH activity (conversion of ECHB to ethyl (R)-4-cyano-3-hydroxybutyrate); type: biochemical; details: ECHB substrate; Activity of Improved HHDH Enzyme/Activity of Agrobacterium sp. HHDH (SEQ ID NO: 2)
Protocol: To a solution of ethyl (S)-4-chloro-3-hydroxybutyrate (10 mM-100 mM) in 500 mM HCN (500 mM NaCN adjusted to pH 7.0 with phosphoric acid) was added the halohydrin dehalogenase enzyme as a predissolved solution in the same buffer. Over time, aliquots of the mixture were withdrawn and extracted with three volumes of ethyl acetate. The organic layer was then analysed for ethyl (R)-4-cyano-3-hydroxybutyrate by gas chromatography (GC), as described hereinbelow in Example 6. Samples were taken at various time points, and the peak area of the product cyanohydrin, ethyl (R)-4-cyano-3-hydroxybutyrate, was plotted as a function of time. Time points are selected at low conversion, for example, less than 5% conversion, to avoid the effect of product inhibition (e.g., 0.5%, 1.0%, 1.5%, 2.0%, 2.5%, 3.0%, etc.). The peak areas were converted to concentration units using a standard curve that was prepared for the ethyl (R)-4-cyano-3-hydroxybutyrate. Activity of the halohydrin dehalogenase was determined in units of μmol (cyanohydrin produced)/min/mg (total halohydrin dehalogenase catalyst). Relative activities of some of the clones are shown in Table 2, computed as Activity of Improved HHDH Enzyme/Activity of Agrobacterium sp. HHDH (SEQ ID NO: 2).
The ethyl (R)-4-cyano-3-hydroxybutyrate produced in Example 5A was analyzed using gas chromatography with flame ionization (FID) detection using an Agilent® HP-5™ column, 30 m long, 0.32 mm inner diameter, film 0.25 μm, using the following program: 1 minute at 100° C., 5° C./minute for 10 minutes; 25° C./minute for 2 minutes; then 2 minutes at 200° C. Inlet and outlet temperatures were both 300° C., and the flow rate was 2 ml/minute. Under these conditions, ethyl (R)-4-cyano-3-hydroxybutyrate elutes at 6.25 minutes and ethyl (S)-4-chloro-3-hydroxybutyrate elutes at 4.5 minutes. Chemical purity of the species was measured using the integrated peak areas from the gas chromatography results.

Molecule | Fold Improvement in HHDH Activity over Aerobacterium sp. HHDH (SEQ ID NO: 2)
SEQ ID NO: 10: improved HHDH (halohydrin dehalogenase) polypeptide of the Sequence Listing (protein) MTAAIVTNVKHFGGMGSALRLSEAGHTVTCHDERLKQKDELEAFAETYPQLNPMSEQEPAELIEAVTSAYGQVDVLVSNDIFAPEFQPIDKYAVEDYRGAVEALQIRPFALVNAVASQMKKRKSGHIIFITSATPFGPWKELSTYTSARAGACTLANALSKELGEYNIPVFAIGPNYLHSEDSPYFYPTEPWKTNPEHVAHVKKVTALQRLGTQKELGELVAFLASGSCDYLTGQVFWLAGGFPMIERWPGMPE | 1.7 Fold
SEQ ID NO: 34: improved HHDH (halohydrin dehalogenase) polypeptide of the Sequence Listing (protein) MSPAIVTNVKHFGGMGTALRLSEAGQTVACHDESFKQKDELEAFAETYPQLKPMSEQEPAELIEAVTSAYGQVDVLVSNDIFAPEFQPIDKYAVEDYRGAVEALQIRPFALVNAVASQMKKRKSGHIIFITSATPFGPWKELSTYTSARAGACTLANALSKELGEYNIPVFAIGPNYLHSEDSPYFYPTEPWKTNPEHVAHVKKVTALQRLGTQKELGELVAFLASGSCDYLTGQVFWLAGGFPMIERWPGMPE | 2.4 Fold
SEQ ID NO: 12: improved HHDH (halohydrin dehalogenase) polypeptide of the Sequence Listing (protein) MSPAIVTNIKHFSGMCRALRLSEAGHTVACHDESFKQKDELEAFAETYPQLKPMSEQEPAELIEAVTSAYGQVDVLVSNDIFAPEFQPIDKYAVEDYRGAVEALQIRPFALVNAVASQMKKRKSGHIIFITSATPFGPWKELSTYTSARAGACTLANALSKELGEYNIPVFAIGPNYLHSEDSPYFYPTEPWKTNPEHVAHVKKVTALQRLGTQKELGELVAFLASGSCDYLTGQVFWLAGGFPMIERWPGMPE | 2.5 Fold
SEQ ID NO: 14: improved HHDH (halohydrin dehalogenase) polypeptide of the Sequence Listing (protein) MSTAIDTNVKHFGSKGTALRLSEAGHTVACHDESFKQKDDLEAFAETYPQLKPMSEQEPAELIEAVTSAYGQVDVLVSNDIFAPEFQPIDKYAVEDYRGAVEALQIRPFALVNAVASQMKKRKSGHIIFITSSTPFGPWKELSTYTSARAGACTLANALSKELGEYNIPVFAIGPNYLHSEDSPYFYPTEPWKTNPEHVAHVKKVTALQRLGTQKELGELVAFLASGSCDYLTGQVFWLAGGFPMIERWPGMPE | 1.4 Fold
SEQ ID NO: 16: improved HHDH (halohydrin dehalogenase) polypeptide of the Sequence Listing (protein) MSTAIVTNVKHFGGMGSALRLSEAGHTVACHDESFKQKDELEAFAETYPQLKPMSEQEPAELIEAVTSAYGQVDVLVSNDIFAPEFQPIDKYAVEDYRGAVEALQIRPFALVNAVASQMKKRKSGHIIFITSATPLGPWKELSTYTSARAGACTLANALSKELGEYNIPVFAIGPNYLHSEDSPYFYPTEPWKTNPEHVAHVKKVTALQRLGTQKELGELVAFLASGSCDYLTGQVFWLAGGFPMIERWPGMPE | 2.0 Fold
SEQ ID NO: 18: improved HHDH (halohydrin dehalogenase) polypeptide of the Sequence Listing (protein) MSTAIVTNVKHFGGMGSALRLSEAGHTVACHDESFKQKDELEAFAETYPQLKPMSEQEPAELIEAVTSAYGQVDVLVSNDIFAPEFQPIDKYAVEDYRGAVEALQIRPFALVNAVASQMKKRKSGHIIFITSATPFGPWKELSTYTSARAGACTLANALSKELGEYNIPVFAIGPNYLHSEDSPYFYPTEPWKTNPEHVAHVKKVTALQRLGTQKELGELVAFLASGSCDYLTGQGFFLAGGFPMIERWPGM | 2.7 Fold
SEQ ID NO: 20: improved HHDH (halohydrin dehalogenase) polypeptide of the Sequence Listing (protein) MSPAIVTNVKHFGGMGSALRLSEAGHTVACHDESFKQKDELEAFAETYPQLKPMSEQEPAELIEAVTSAYGQVDVLVSNDIFAPEFQPIDKYAVEDYRGAVEALQIRPFALVNAVASQMKKRKSGHIIFITSATPFGPWKELSTYTSARAGACTLANALSKELGEYNIPVFAIGPNYLHSEDSPYFYPTEPWKTNPEHVAHVKKVTALQRLGTQKELGELVAFLASGSCDYLTGQVFWLAGGFPMIERWPGMPE | 3.8 Fold
SEQ ID NO: 22: improved HHDH (halohydrin dehalogenase) polypeptide of the Sequence Listing (protein) MSTAIVTNVKHFGGMGSALRLSEAGHTVACHDESFNQKDELEAFAETYPQLKPMSEQEPAELIEAVTSAYGQVDVLVSNDIFAPEFQPIDKYAVEDYRGAVEALQIRPFALVNAVASQMKKRKSGHIIFITSATPFGPWKELSTYTSARAGACTLANALSKELGEYNIPVFAIGPNYLHSEDSPYFYPTEPWKTNPEHVAHVKKVTALQRLGTQKELGELVAFLASGSCDYLTGQVFWLAGGFPMIERWPGVPE | 2.5 Fold
SEQ ID NO: 24: improved HHDH (halohydrin dehalogenase) polypeptide of the Sequence Listing (protein) MSTAIVTNVKHFGGMGSALRLSEAGHTVACHDESFKQKDELEAFAETYPQLKPMSEQEPAELIEAVTSAYGQVDVLVSNDIFAPEFQPIDKYAVEDYRGAVEALQIRPFALVNAVASQMKKRKSGHIIFITSATPFGPWKELSTYTSARAGACTLANALSKELGEYNIPVFAIGPNYLHSEDSPYFYPTEPWKTNPEHMAHVKKVTALQRLGTQKELGELVAFLASGSCDYLTGQVFWLAGGFPMIERWPGMPE | 3.2 Fold
SEQ ID NO: 26: improved HHDH (halohydrin dehalogenase) polypeptide of the Sequence Listing (protein) MSTAIVTNVKHFGGMGSALRLSEAGHTVACHDESFKQKDELEAFAETYPQLKPMSEQEPAELIEAVTSAYGQVDVLVSNDIFAPEFQPIDKYAVEDYRGAVEALQIRPFALVNAVASQMKKRKSGHIIFITSATPLGPWKELSTYTSARAGACTLANALSKELGEYNIPVFAIGPNYLHSEDSPYFYPTEPWKTNPEHVAHVKKVTALQRLGTQKELGELVAFLASGSCDYLTGQVFWLAGGFPMIERWPGMPE | 1.7 Fold
SEQ ID NO: 28: improved HHDH (halohydrin dehalogenase) polypeptide of the Sequence Listing (protein) MSPAIVTNVKHFGGMGSALRLSEAGHTVACHDESFKQKDELEAFAETYPQLKPMSEQEPAELIEAVTSAYGQVDVLVSNDIFAPEFQPIDKYAVEDYRGAVEALQIRPFALVNAVASQMKKRKSGHIIFITSATPFGPWKELSTYTSARAGACTLANALSKELGEYNIPVFAIGPNYLHSEDSPYFYPTEPWKTNPEHVAHVKKVTALQRLGTQKELGELVAFLASGSCDYLTGQVFWLAGGFPMIERWPGM | 2.2 Fold

same assay, conditions: assay described in Example 5A

Molecule | HHDH activity greater than the HHDH activity of Agrobacterium sp. (wild-type) HHDH (SEQ ID NO: 2)
W139R/N176E: intermediate active HHDH variant with W139 and N176 mutated into an apparent salt bridge (with reference to SEQ ID NO: 2) (protein) MSTAIVTNVKHFGGMGSALRLSEAGHTVACHDESFKQKDELEAFAETYPQLKPMSEQEPAELIEAVTSAYGQVDVLVSNDIFAPEFQPIDKYAVEDYRGAVEALQIRPFALVNAVASQMKKRKSGHIIFITSATPFGPRKELSTYTSARAGACTLANALSKELGEYNIPVFAIGPEYLHSEDSPYFYPTEPWKTNPEHVAHVKKVTALQRLGTQKELGELVAFLASGSCDYLTGQVFWLAGGFPMIERWPGMPE | greater HHDH activity relative to wildtype HHDH
W139D/N176R: intermediate active HHDH variant with W139 and N176 mutated into an apparent salt bridge (with reference to SEQ ID NO: 2) (protein) MSTAIVTNVKHFGGMGSALRLSEAGHTVACHDESFKQKDELEAFAETYPQLKPMSEQEPAELIEAVTSAYGQVDVLVSNDIFAPEFQPIDKYAVEDYRGAVEALQIRPFALVNAVASQMKKRKSGHIIFITSATPFGPDKELSTYTSARAGACTLANALSKELGEYNIPVFAIGPRYLHSEDSPYFYPTEPWKTNPEHVAHVKKVTALQRLGTQKELGELVAFLASGSCDYLTGQVFWLAGGFPMIERWPGMPE | greater HHDH activity relative to wildtype HHDH
